This is an account of results in article PMC10920880, “RNA compaction and iterative scanning for small RNA targets by the Hfq chaperone”.

Series [1] addresses T1, Hfq:R16A (rim mutant) (Escherichia coli K12, UniProt P0A6X3 1-102, R16A). Kind of series: smFRET; sRNA (N13)-Hfq; half as much time on distant site as WT; smFRET: 10 mM Tris-HCl pH 7.5, 50 mM NaCl, 50 mM KCl, 4 mM Trolox, 0.01% Nikkol, 0.8% glucose, RNasin, oxygen scavenger; EMSA: 1x TNK, 5% glycerol, 15 min RT, native 8% PAGE 1x TBE 4 C. Particulars: protein: recombinant; tags: none (untagged); chain copies: 6; label: tether 5' biotin, 3' Cy5; RNA 3' extension paired to DNA tether; 5' hairpin.

The target of series [2] is Hfq:Y25D (distal face mutant) (Escherichia coli K12, UniProt P0A6X3 1-102, Y25D). Kind of series: smFRET; 5 nM Y25D, compaction E~0.75; smFRET: 10 mM Tris-HCl pH 7.5, 50 mM NaCl, 50 mM KCl, 4 mM Trolox, 0.01% Nikkol, 0.8% glucose, RNasin, oxygen scavenger; EMSA: 1x TNK, 5% glycerol, 15 min RT, native 8% PAGE 1x TBE 4 C. Particulars: protein: recombinant; tags: none (untagged); chain copies: 6; label: internal Cy5; tether 5' biotin, 3' Cy3 (unlabeled tether for sRNA assays); RNA 3' extension paired to DNA tether; 5' hairpin. Background: Mobility shift assays separate free from complexed probe on a gel.

For series [3], the target named is Hfq:TM (triple rim mutant) (Escherichia coli K12, UniProt P0A6X3 1-102, R16A;R17A;R19D). Put plainly: smFRET; 5 nM TM, less compaction E~0.37; smFRET: 10 mM Tris-HCl pH 7.5, 50 mM NaCl, 50 mM KCl, 4 mM Trolox, 0.01% Nikkol, 0.8% glucose, RNasin, oxygen scavenger; EMSA: 1x TNK, 5% glycerol, 15 min RT, native 8% PAGE 1x TBE 4 C. The settings on record: protein: recombinant; tags: none (untagged); chain copies: 6; label: internal Cy5; tether 5' biotin, 3' Cy3 (unlabeled tether for sRNA assays); RNA 3' extension paired to DNA tether; 5' hairpin.

Series [4] addresses T1, Hfq:R16A (rim mutant). Put plainly: smFRET; 5 nM R16A, less compaction E~0.43; smFRET: 10 mM Tris-HCl pH 7.5, 50 mM NaCl, 50 mM KCl, 4 mM Trolox, 0.01% Nikkol, 0.8% glucose, RNasin, oxygen scavenger; EMSA: 1x TNK, 5% glycerol, 15 min RT, native 8% PAGE 1x TBE 4 C. The settings on record: protein: recombinant; tags: none (untagged); chain copies: 6; label: internal Cy5; tether 5' biotin, 3' Cy3 (unlabeled tether for sRNA assays); RNA 3' extension paired to DNA tether; 5' hairpin.

B1: (AAC)4-S6-N35-S6 tandem mRNA on DNA tether (mixed)
RNA: GGACUCUAUCGAGUCCAACAACAACAACAGACCUCUCUACCAUCACCUAAACUUUACUCUACCAUCACCAGACCUCGCGCCCAGGACGACACACUUUGGACAGGACACACAGGACACAGG
DNA: CCTGTGTCCTGTGTGTCCTGTCCAAAGTGTGTCGTCC
Consider B1, for which the binding result in the series with Hfq:R16A (rim mutant) [1] is given as “binds”.

B2: (AAC)6-Cy5-N35-S6 mRNA on DNA tether (mixed)
RNA: GGACUCUAUCGAGUCCAACAACAACAACAACAACCCCUGCAUCACCUAAACUUUACUCUACCAUCACCAGACCUCGCGCCCAGGACGACACACUUUGGACAGGACACACAGGACACAGG
DNA: B1 DNA
modifications: internal Cy5 after nt 35
For B2, the binding result (in series [2]; in series [3]; with Hfq:R16A (rim mutant) [4]) was “binds” throughout.
